# Laboratory results as given in patent publication US20230257435A1, “Wound Healing Composition and Uses Thereof” (AGENCY FOR SCIENCE, TECHNOLOGY AND RESEARCH, priority 2020, published 2023).
# “Also recorded” adds a separate entry of the source.
# B1: sAgrin: C-terminus recombinant Agrin fragment containing 8 amino acid 'Z8' insert and LG3 domain (SEQ ID NO: 7), His-tagged, expressed in E. coli (protein)
# chain: DTLAFDGRTFVEYLNAVTESELANEIPVEKALQSNHFELSLRTEATQGLVLWSGKATERADYVALAIVDGHLQLSYNLGSQPVVLRSTVPVNTNRWLRVVAHREQREGSLQVGNEAPVTGSSPLGATQLDTDGALWLGGLPELPVGPALPKAYGTGFVGCLRDVVVGRHPLHLLEDAVTKPELRPCPTP
# modifications: His tag
# Test system: primary mouse keratinocytes over dermal fibroblasts
# Test: 3D-stiffness dependent keratinocyte fibroblast co-culture migration assay
# Format: cell-based
# Conditions: 10 μg/ml sAgrin
# Description: A 3D in-vitro wound healing model was created using collagen constructs of defined stiffness modifying a previously published protocol. Collagen constructs were made with Col-T-gel (0.8 KPa-soft) or (30 KPa-stiff) as per manufacturer's recommended protocol containing 300,000 primary mouse dermal fibroblasts (DFs). For some experiments, siControl and siAgrin treated DFs were incorporated within soft or stiff collagen constructs. The constructs bearing fibroblasts were allowed to solidify for 45 min inside incubator. A second layer of collagen matching the stiffness of the underneath layer was added containing 350,000 of primary mouse keratinocytes (KRTs) and the construct was allowed to solidify for 3-4 h. After removing excess media, the constructs were washed gently with 1×PBS twice. An upside down 2μ pipette tip was inserted and gently rotated at the center of the constructs to create a circular wound. The collagen and cells was quickly removed from the wound area and replaced with 40 μl of soft or stiff Col-T-gel matching the consistency and set-up of the constructs. The resultant wounded constructs were placed inside the incubator and imaged after 30 min for day 0 time-points. The migratory keratinocytes were imaged till day 5 post-wounding.
molecule,measurement,setting,value
B1,keratinocyte migration in soft matrix,"0.8 KPa, day 5",strongly enhanced keratinocyte migration; also recorded: stimulated mouse keratinocyte migration over dermal fibroblasts
same,"keratinocyte migration in stiff matrix, Agrin depleted KRTs and DFs",30 KPa,strongly restored keratinocyte migration
same,"keratinocyte migration, MMP12 depleted KRTs and DFs",soft matrix 0.8 KPa,not even rescued by sAgrin supplemented compliant matrices
